The results in this text go back to the RNAGym collection of RNA variant scans (doi:10.1073/pnas.2313332121).

The chains are these.
B1: TPR t1 (parent)
chain: GACCAAUCUGCCCUCAGAGCUCGAGAACAUCUUCGGAUGCAGAGGAGGCAGGCUUCGGUGGCGCGAUAGCGCCAACGUCCUCAACCUCCAAUGCAUCCCACCACAUGAUGAUGCCUGAAGAGCCUUGGUUUUUUG

Variants of B1 are the subject of the data set. The data set can be described thus: polymerase ribozyme fitness, log enrichment relative to wild type (log ratio); higher = more active; in vitro selection for triplet polymerase activity. A digest of the protocol:
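Genotype fitness is the logarithm of its enrichment divided by wild-type enrichment, using inverse-variance-weighted averages of replicates. That logarithm is base 2. Enrichment was measured by Illumina sequencing of input and output libraries from one triplicate in vitro selection round, with frozen incubation at −7 °C, on PCR-built, transcribed mutant libraries of each subunit of a heterodimeric triplet polymerase ribozyme, retaining genotypes with ≥10 input reads and ≥1 read per output.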
For G42C G71U G117C, the “polymerase ribozyme fitness (log ratio)” value is -4.87.

Consider A41U C94G, for which the “polymerase ribozyme fitness (log ratio)” value was -1.87.

As for G42U A75G G93C, the “polymerase ribozyme fitness (log ratio)” value is -2.29.

For the variant G42C C79U C82G C85G G110C, the “polymerase ribozyme fitness (log ratio)” value was -5.74.

Turning to A41U C62U, the “polymerase ribozyme fitness (log ratio)” value is -1.86.

Take A41U C62A: the “polymerase ribozyme fitness (log ratio)” value is -2.71.

As to G42C G52U G60C, the “polymerase ribozyme fitness (log ratio)” value was -2.14.

As to G42C C53G, the “polymerase ribozyme fitness (log ratio)” value was -1.2.

Regarding G42C C49G C56U, the “polymerase ribozyme fitness (log ratio)” value was -2.41.

In the case of G42A G120U, the “polymerase ribozyme fitness (log ratio)” value was -1.82.

As for A41U G61C, the “polymerase ribozyme fitness (log ratio)” value was -3.99.

As to G42U A100C U116C, the “polymerase ribozyme fitness (log ratio)” value is -4.27.

Turning to G42U A68C G107C C114U G128C U133G, the “polymerase ribozyme fitness (log ratio)” value is -6.38.

Take G42A G48U: the “polymerase ribozyme fitness (log ratio)” value is -2.42.

Consider G42C G117A, for which the “polymerase ribozyme fitness (log ratio)” value was -2.18.

For G42U A43C, the “polymerase ribozyme fitness (log ratio)” value was -1.95.

As to A41U C72U A83U U87G U92A, the “polymerase ribozyme fitness (log ratio)” value was -0.865.

Take A41G C76U: the “polymerase ribozyme fitness (log ratio)” value was -0.163.

As for A41G U55A C56U C72G A118U, the “polymerase ribozyme fitness (log ratio)” value was -0.698.

Regarding G42C C72U, the “polymerase ribozyme fitness (log ratio)” value was -1.39.

As to A41U A43U G113A C124A, the “polymerase ribozyme fitness (log ratio)” value is -1.71.

Take G42A C89U: the “polymerase ribozyme fitness (log ratio)” value is -1.16.

Regarding G42A G48A C80A U96A, the “polymerase ribozyme fitness (log ratio)” value is -6.92.

Consider G42A U59G C73U U112G C123A, for which the “polymerase ribozyme fitness (log ratio)” value was -4.46.

Consider G42A U112G, for which the “polymerase ribozyme fitness (log ratio)” value is -2.1.

For the variant A41G G52C A66C C97U, the “polymerase ribozyme fitness (log ratio)” value was -3.69.

As for A41U G93A U112A, the “polymerase ribozyme fitness (log ratio)” value was -1.69.

Regarding G42C A111G, the “polymerase ribozyme fitness (log ratio)” value is -1.3.

Consider G42A G58A, for which the “polymerase ribozyme fitness (log ratio)” value was -1.77.

As to G42A G63C C94G U130G, the “polymerase ribozyme fitness (log ratio)” value was -4.71.

As for A41G U55A G58C G120U, the “polymerase ribozyme fitness (log ratio)” value was -0.997.

On to G42A G122A, for which the “polymerase ribozyme fitness (log ratio)” value is -2.59.

Take A41U C53G G77A: the “polymerase ribozyme fitness (log ratio)” value was -1.35.

Take G42U C53U C82U G93A C99A G107U C114G C123G U125A G127A: the “polymerase ribozyme fitness (log ratio)” value was -4.42.

As to G42A U130C U133A, the “polymerase ribozyme fitness (log ratio)” value was -1.86.

For G42U C53G G69U, the “polymerase ribozyme fitness (log ratio)” value is -0.375.

As for A41U A43C C49U A50G U129C, the “polymerase ribozyme fitness (log ratio)” value was -4.69.

For A41U A46U G61A, the “polymerase ribozyme fitness (log ratio)” value was -1.65.

For G42A G93A C114U, the “polymerase ribozyme fitness (log ratio)” value is -3.01.

As for G42C G44C, the “polymerase ribozyme fitness (log ratio)” value was -0.912.

In the case of G42A A118U, the “polymerase ribozyme fitness (log ratio)” value is -1.15.

For the variant G42C G47U G52C C114A A118G, the “polymerase ribozyme fitness (log ratio)” value is -6.7.

For the variant A41U G117C, the “polymerase ribozyme fitness (log ratio)” value is -4.87.

As for A41U C124A, the “polymerase ribozyme fitness (log ratio)” value was 0.11.

As to A41U C124U, the “polymerase ribozyme fitness (log ratio)” value turned out to be 0.983.

As to A41G G71U, the “polymerase ribozyme fitness (log ratio)” value was -0.756.

As to A41G C73U A100U, the “polymerase ribozyme fitness (log ratio)” value was -1.33.

In the case of G42C G63C C73A, the “polymerase ribozyme fitness (log ratio)” value was -3.92.

Turning to A41U G44C G47U C70U A84C A108U G117U, the “polymerase ribozyme fitness (log ratio)” value was -6.98.

On to A41U G69U U78G C123U, for which the “polymerase ribozyme fitness (log ratio)” value was 1.47.

Turning to A41U G45A, the “polymerase ribozyme fitness (log ratio)” value was -1.87.

Take G42C C85G: the “polymerase ribozyme fitness (log ratio)” value was -3.39.

For the variant A41U A111G U112A A118U, the “polymerase ribozyme fitness (log ratio)” value was -5.06.

With G42C G57U U126G, the “polymerase ribozyme fitness (log ratio)” value is -3.49.

Turning to G42A C72G G93U, the “polymerase ribozyme fitness (log ratio)” value is -3.39.

With G42A A66G C70U C89A U132A, the “polymerase ribozyme fitness (log ratio)” value was -5.56.

G42A C70A: the “polymerase ribozyme fitness (log ratio)” value was -4.1.

As for A41U G42C G60U, the “polymerase ribozyme fitness (log ratio)” value was -2.24.

With A41U G61C C115A G117A, the “polymerase ribozyme fitness (log ratio)” value is -5.8.

For A41U C123G G135U, the “polymerase ribozyme fitness (log ratio)” value was 0.204.

G42A A46C G63C U106A: the “polymerase ribozyme fitness (log ratio)” value was -3.82.

For A41G G47A C76A C101U, the “polymerase ribozyme fitness (log ratio)” value was -3.57.

In the case of G42C G69U A91U C102U, the “polymerase ribozyme fitness (log ratio)” value was -0.697.

A41U U112A: the “polymerase ribozyme fitness (log ratio)” value was -0.325.

Regarding A41U U112C, the “polymerase ribozyme fitness (log ratio)” value came out at 0.631.

Consider G42C U96G C124U, for which the “polymerase ribozyme fitness (log ratio)” value is -0.43.

With G42C G128A, the “polymerase ribozyme fitness (log ratio)” value is -3.12.

G42C G128C: the “polymerase ribozyme fitness (log ratio)” value is -4.09.

In the case of G42C G122A, the “polymerase ribozyme fitness (log ratio)” value is -2.41.

Regarding A41U C72A G113C, the “polymerase ribozyme fitness (log ratio)” value is -2.13.

As for A41G C79G, the “polymerase ribozyme fitness (log ratio)” value is -4.32.

A41U G63A: the “polymerase ribozyme fitness (log ratio)” value was -2.73.

Consider G42A C53U C88A C114A G127U, for which the “polymerase ribozyme fitness (log ratio)” value was -5.52.

As to G42A U55A U112G C115A, the “polymerase ribozyme fitness (log ratio)” value is -2.35.

On to A41G C101A C115G, for which the “polymerase ribozyme fitness (log ratio)” value was -2.97.

With A41U C56G G69C U92A, the “polymerase ribozyme fitness (log ratio)” value was -5.43.

With A41U U109G, the “polymerase ribozyme fitness (log ratio)” value was -6.03.

Consider G42U A74U, for which the “polymerase ribozyme fitness (log ratio)” value is -2.19.

Consider G42U A84U C115A G127A, for which the “polymerase ribozyme fitness (log ratio)” value is -4.77.

Regarding G42U C49U, the “polymerase ribozyme fitness (log ratio)” value was -2.98.

On to G42C C79U A95G U129C, for which the “polymerase ribozyme fitness (log ratio)” value was -2.57.

With G42A C88A G110A, the “polymerase ribozyme fitness (log ratio)” value is -4.27.

On to A41G C89G G128C, for which the “polymerase ribozyme fitness (log ratio)” value was -3.51.

For the variant A41G G117C, the “polymerase ribozyme fitness (log ratio)” value was -4.18.
